Test results published in PMC4301919, “Helical Defects in MicroRNA Influence Protein Binding by TAR RNA Binding Protein”.
Where a chain is given by its changes, count along the chain named.

Legend:
TRBP-ΔC-RBD2-Null [1] = target: T1, TRBP-ΔC-RBD2-Null (UniProt Q15633-2 9-215, K150A;K189A;K190A); assay: EMSA; apparent Kd; nH 3.2; 50 mM sodium cacodylate pH 7.0, 50 mM potassium glutamate, 5% glycerol; EMSA 0.5 pM RNA, 30 min at room temperature, gel 0.25X TBE at 10 C; CD at 10 C with 5-15 uM RNA; settings: protein: recombinant; label: 5'-32P top strand (EMSA); blunt
T1 sequence: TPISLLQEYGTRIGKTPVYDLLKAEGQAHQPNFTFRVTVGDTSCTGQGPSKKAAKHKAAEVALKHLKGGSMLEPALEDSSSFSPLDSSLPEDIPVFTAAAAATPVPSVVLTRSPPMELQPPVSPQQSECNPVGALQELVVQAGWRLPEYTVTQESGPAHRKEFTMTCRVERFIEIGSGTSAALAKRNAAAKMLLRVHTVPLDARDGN

TRBP-ΔC-RBD1-Null [2] = target: T2, TRBP-ΔC-RBD1-Null (UniProt Q15633-2 9-215, K23A;K59A;K60A); assay: EMSA; apparent Kd; nH 3.1; 50 mM sodium cacodylate pH 7.0, 50 mM potassium glutamate, 5% glycerol; EMSA 0.5 pM RNA, 30 min at room temperature, gel 0.25X TBE at 10 C; CD at 10 C with 5-15 uM RNA; settings: protein: recombinant; label: 5'-32P top strand (EMSA); blunt
T2 sequence: T1 sequence with K15A, K51A, K52A, A142K, A181K, A182K

TRBP-ΔC-RBD2-Null [3] = target: T1, TRBP-ΔC-RBD2-Null; assay: EMSA; apparent Kd; nH 2.0; 50 mM sodium cacodylate pH 7.0, 50 mM potassium glutamate, 5% glycerol; EMSA 0.5 pM RNA, 30 min at room temperature, gel 0.25X TBE at 10 C; CD at 10 C with 5-15 uM RNA; settings: protein: recombinant; label: 5'-32P top strand; imperfect duplex with U-bulge and A-A mismatch
TRBP-ΔC-RBD2-Null [4] = target: T1, TRBP-ΔC-RBD2-Null; assay: EMSA; apparent Kd; nH 3.4; 50 mM sodium cacodylate pH 7.0, 50 mM potassium glutamate, 5% glycerol; EMSA 0.5 pM RNA, 30 min at room temperature, gel 0.25X TBE at 10 C; CD at 10 C with 5-15 uM RNA; settings: protein: recombinant; label: 5'-32P top strand (EMSA); blunt
TRBP-ΔC-RBD1-Null [5] = target: T2, TRBP-ΔC-RBD1-Null; assay: EMSA; apparent Kd; nH 3.0; 50 mM sodium cacodylate pH 7.0, 50 mM potassium glutamate, 5% glycerol; EMSA 0.5 pM RNA, 30 min at room temperature, gel 0.25X TBE at 10 C; CD at 10 C with 5-15 uM RNA; settings: protein: recombinant; label: 5'-32P top strand (EMSA); blunt

B1: ds22 (dsRNA)
RNA 1: GUCAGCAGUGCCUUAGCAGCAC
RNA 2: GUGCUGCUAAGGCACUGCUGAC
- Kd (TRBP-ΔC-RBD2-Null [1]): 340 ± 10 nM
- Kd (TRBP-ΔC-RBD1-Null [2]): 2290 ± 80 nM

B2: miR-16-1/miR-16-1* (dsRNA)
RNA 1: UAGCAGCACGUAAAUAUUGGCG
RNA 2: CCAGUAUUAACUGUGCUGCUGAA
- Kd (TRBP-ΔC-RBD2-Null [3]): 900 ± 100 nM

B3: ds33 (dsRNA)
RNA 1: GGUCAGCAGUGCCUUAGCAGCACGUAAAUAUGG
RNA 2: CCAUAUUUACGUGCUGCUAAGGCACUGCUGACC
- Kd (TRBP-ΔC-RBD2-Null [4]): 440 ± 50 nM
- Kd (TRBP-ΔC-RBD1-Null [5]): 1220 ± 70 nM
